Legend:
[1] = substrate: C=C(O[C@@H]1C=C(C(=O)O)C=C[C@H]1O)C(=O)O; test: purified protein; format: biochemical, Petunia x hybrida; conditions: 20 mM Tris-HCl pH 8.0, 1 mM EDTA, 37 °C
[2] = substrate: O=C(O)C(=O)CC1(C(=O)O)C=CC(O)C=C1; test: purified protein; format: biochemical, Petunia x hybrida; conditions: 20 mM Tris-HCl pH 8.0, 1 mM EDTA, 37 °C

Row | Protein | Km [2] [µM] | Vmax [2] [µmol/min/mg] | also measured
1 | PhCM2 (Petunia x hybrida) (protein, coding region, N-terminal 6xHis tag (pET-28a), E. coli, Ni-NTA) MACGDYDDKLSLDLIRDSLIRQEDTIIFNLIERIKFPINSTLYKKPSSWFPDFTGSLFQYLFQETEALQSKVGRYLSPEENPFFPDNLPASIVPPSKCPPVLHPVAESININEKILDVYLNQLLPLFCTEADEGNYATTAACDIQLLQAISRRIHYGKFVAEVKFRDCSDEYTPLILAQQDRDALMKLLTFEVVEEMVKKRVAKKAMIFGQEVTLVDNAKEVKCKVDPLLVSRLYDEWIMPLTKHVQVEYLLRRLDQNKLTSI |  |  | Km ([1]; reaction volume 225 μl): 8.6 ± 1.2 µM; Vmax ([1]; reaction volume 225 μl): 114 µmol/min/mg
2 | PhCM1 (Petunia x hybrida) (protein) QASATSLGLGNKNRVDETESYTLDGIRHSLIRQEDSIIFSLVERAQYCYNAETYDPDVFAMDGFHGSLVEYIVRETEKLHATVGRYKSPDEHPFFPKVLPEPVLPPMQYPKVLHPIADSININVKIWEMYFENLLPRLVKEGDDGNYGSTAVCDTICVQALSKRIHYGKFVAEAKYRASPEVYNAAIRAQDRNGLMDLLTYPAVEEAIKRRVEIKTRTYGQELHINGPENGGDPVYKIKPSLVAELYGDWIMPLTKEVQVQYLLRRLD |  |  | Km [1]: 174 ± 27 µM; Vmax [1]: 45.7 µmol/min/mg
3 | PhADT3S (Petunia x hybrida) (protein, short isoform starting at second in-frame ATG (133 residues downstream of first Met), intact catalytic and ACT domains, about 33 kD, N-terminal 6xHis tag (pET-28a), E. coli, Ni-NTA) MHGAQLRVAYQGVPGAYSEAAAGKAYPKCEAIPCDQFEVAFQAVELWIADRAVLPIENSLGGSIHRNYDLLLRHRLHIVGEVQLPVHHCLLALPGVRKEYLTRVISHPQALAQCELTLTKLGLNVAREAVDDTAGAAEYIAANNLRDTAAIASSRAAELYGLDILEQGIQDDLSNVTRFVMLAREPIIPRTDRPFKTSIVFAHDKGTSVLFKVLSAFAFRNISLTKIESRPHRNRPIRLVDDANVGTAKHFEYMFYVDFEASMADVRAQNALAEVQEFTSFLRVLGSYPMDMTPWSPSRDA | 433 ± 73 | 0.113 | 
4 | PhADT3L (Petunia x hybrida) (protein) AGAAAVNTGVVNTPASNNTAGHVGASRTDWQSSCAILASKVVSQQQDTEKSGGAGNITAVNGHKILNLDLLPVESNRAKPLTITDLSPAPMHGAQLRVAYQGVPGAYSEAAAGKAYPKCEAIPCDQFEVAFQAVELWIADRAVLPIENSLGGSIHRNYDLLLRHRLHIVGEVQLPVHHCLLALPGVRKEYLTRVISHPQALAQCELTLTKLGLNVAREAVDDTAGAAEYIAANNLRDTAAIASSRAAELYGLDILEQGIQDDLSNVTRFVMLAREPIIPRTDRPFKTSIVFAHDKGTSVLFKVLSAFAFRNISLTKIESRPHRNRPIRLVDDANVGTAKHFEYMFYVDFEASMADVRAQNALAEVQEFTSFLRVLGSYPMDMTPWSPSRDA | 358 ± 32 | 0.125 | 
